Experiments:
mouse skin explants = test: Mouse skin explant assay (keratinocyte outgrowth); format: cell-based
Experimental: Three days old ICR strain mouse pups were sacrificed and the hind skin on either side of the midline in the shoulder region was washed in 70% ethanol and excised using scalpel. The excised skin was washed in 70% ethanol and placed (dermis side down) on the pre-made gel substrates of defined stiffness, either in the absence or presence of 20 μg/ml sAgrin. The explants were allowed to adhere for 2 h before adding the keratinocyte culture medium (DMEM) containing 300 μM Ca^2+ as described previously^31. The keratinocyte outgrowth and the skin tissues regularly imaged under an Axiovert-200 inverted microscope and were subsequently fixed in 4% paraformaldehyde and immunostained for Keratin 17 antibody.
Tissue culture plates were coated with Col-T-gel (Fischer Scientific) of stiffness ranging from 0.8 KPa (soft) to 30 KPa (stiff) as per manufacturer recommendations and allowed to solidify for 40 min at 37° C. inside tissue culture incubators. Some experiments were performed with cells seeded on the poly-hydrogel plates of defined stiffness: 0.2 kPa and 16 kPa soft and hard polyhydrogels, respectively (CytoSoft, Advanced Biomatrix, Inc.,). The determination of stiffness of silicone substrates were done by the manufacturer as per previously published protocols. For certain experiments, indicated amounts of sAgrin was incorporated into the 0.8 KPa collagen gels before gelation process. Upon gelation, trypsinized cells or excised mouse skin explants were plated onto the gels of different stiffness either alone or containing sAgrin. The cells/tissues were incubated under standard culture condition with 500 μl recommended culture medium for the indicated days. The crossbow shaped micropatterns with fibronectin coated islands were generated by microlithography on a 19.5×19.5 mm coverslide from Cytoo, Inc., France. The micropatterns had surface areas of 800μ^2 or 1600μ^2, respectively. Fifty thousand cells after initial siRNA treatment was placed on the micropatterns for 4-6 h before processing them for immunofluorescence. […]

mouse skin wounds = test: Cytokine and chemokine expression in mouse skin wounds; format: in vivo
Experimental: The photographs of a representative wound for each condition is shown above. The respective p values for the selected group of significant genes are represent in tabular form (n=3 mice per group, Multiple t tests). (b) Western blot analysis in the mouse skin treated as in (a) showing the protein expression of selected proteins. GAPDH served as a loading control (n=2 independent mice wounds were analyzed for each group).
Indicated cells post-manipulation were washed twice with cold Phosphate buffered saline (PBS) and lysed with cold 1% NP-40 lysis buffer supplemented with 1× protease inhibitor cocktail (Roche Applied Biosciences) for 15 mins at 4° C. […] The density of the various bands was quantified using the Image-J software.
Total RNA was extracted from indicated cells using Qiagen RNeasy mini kit as per the manufacturer's recommended protocol. […] For RNA-sequencing, the RNA quality was analyzed on a Bioanalyzer instrument (Agilent) using the Agilent RNA 6000 Pico Kit. […] Purified libraries were quantified by qPCR (KAPA Library Quantification Kit for Illumina, Roche). […] The condition of sequencing was represented by a single read high output run at 75 bp read length. Raw reads from fastq files were aligned to the hg38 genome using STAR 2.6.1d. […] The relative number of reads mapping to each gene was quantified with htseqcount on features from the gtf file gencode.v29.annotation.gtf. […]

B1: sAgrin: C-terminus recombinant Agrin fragment containing 8 amino acid 'Z8' insert and LG3 domain (SEQ ID NO: 7), His-tagged, expressed in E. coli (protein)
chain: DTLAFDGRTFVEYLNAVTESELANEIPVEKALQSNHFELSLRTEATQGLVLWSGKATERADYVALAIVDGHLQLSYNLGSQPVVLRSTVPVNTNRWLRVVAHREQREGSLQVGNEAPVTGSSPLGATQLDTDGALWLGGLPELPVGPALPKAYGTGFVGCLRDVVVGRHPLHLLEDAVTKPELRPCPTP
modifications: His tag
keratinocyte outgrowth on soft substrates (mouse skin explants; soft ECM, 20 μg/ml sAgrin, day 5): significantly enhanced keratinocyte outgrowth | keratinocyte outgrowth of Agrin depleted explants on stiff substrates (mouse skin explants; stiff ECM with 20 μg/ml sAgrin): exhibited higher keratinocyte outgrowth | protein expression of TGF-β1, VEGF-A and MCP-1 (mouse skin wounds; vs BSA and Collagen): augmented protein expression(s) of TGF-β1, VEGF-A and MCP-1 | mRNA of TGF-β1, VEGF-A, MCP-1, MIP-1β and MIP-2 (mouse skin wounds; within 48 h post-injury, vs BSA or Collagen): significantly induced

Reference: patent US20230257435A1, “Wound Healing Composition and Uses Thereof” (AGENCY FOR SCIENCE, TECHNOLOGY AND RESEARCH, priority 2020, published 2023)
